According to IntAct's records for PubMed 11483516:

B1: STAM-binding protein (Homo sapiens), O95630 (parent)
chain: MSDHGDVSLPPEDRVRALSQLGSAVEVNEDIPPRRYFRSGVEIIRMASIYSEEGNIEHAFILYNKYITLFIEKLPKHRDYKSAVIPEKKDTVKKLKEIAFPKAEELKAELLKRYTKEYTEYNEEKKKEAEELARNMAIQQELEKEKQRVAQQKQQQLEQEQFHAFEEMIRNQELEKERLKIVQEFGKVDPGLGGPLVPDLEKPSLDVFPTLTVSSIQPSDCHTTVRPAKPPVVDRSLKPGALSNSESIPTIDGLRHVVVPGRLCPQFLQLASANTARGVETCGILCGKLMRNEFTITHVLIPKQSAGSDYCNTENEEELFLIQDQQGLITLGWIHTHPTQTAFLSSVDLHTHCSYQMMLPESVAIVCSPKFQETGFFKLTDHGLEEISSCRQKGFHPHSKDPPLFCSCSHVTVVDRAVTITDLR
partner: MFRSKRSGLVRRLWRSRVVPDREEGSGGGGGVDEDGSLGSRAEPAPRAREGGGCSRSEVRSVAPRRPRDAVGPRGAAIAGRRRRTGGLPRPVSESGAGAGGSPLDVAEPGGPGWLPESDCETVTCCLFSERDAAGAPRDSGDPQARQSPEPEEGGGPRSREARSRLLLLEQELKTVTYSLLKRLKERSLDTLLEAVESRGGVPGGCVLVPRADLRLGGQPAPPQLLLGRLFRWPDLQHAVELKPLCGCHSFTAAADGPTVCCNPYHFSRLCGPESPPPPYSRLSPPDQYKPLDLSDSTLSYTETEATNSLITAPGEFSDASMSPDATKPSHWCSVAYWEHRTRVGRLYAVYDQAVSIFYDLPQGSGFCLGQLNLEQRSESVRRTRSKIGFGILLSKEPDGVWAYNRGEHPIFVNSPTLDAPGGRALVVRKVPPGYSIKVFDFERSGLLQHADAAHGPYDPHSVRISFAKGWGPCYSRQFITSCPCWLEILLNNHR

Variants of: B1
Settings: with smad6_mouse Smad6, O35182
For S243A;S245A;S247A, the “effect of a mutation on the interaction” value was “increasing interaction”.
